# Experimental data published in patent publication US20180155451A1 (published 2018).
# Changes are numbered by the printed parent chain.
# T1: FcγRIIa R (FcγRIIa, allotype R: Arg at position 131) extracellular domain with C-terminal His tag (human, UniProt P12318 34-217)
# T1 construct: extracellular domain; also called FcgRIIa R; 2aR; not shown: His tag at the C terminus
# T1 sequence (looked up): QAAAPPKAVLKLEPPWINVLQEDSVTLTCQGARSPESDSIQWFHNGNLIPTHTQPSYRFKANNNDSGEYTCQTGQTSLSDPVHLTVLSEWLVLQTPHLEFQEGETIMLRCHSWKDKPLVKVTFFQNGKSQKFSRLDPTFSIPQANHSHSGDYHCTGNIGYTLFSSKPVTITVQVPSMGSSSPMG
# T2: FcγRIIa H (human, UniProt P12318 34-217)
# T2 construct: extracellular domain; also called FcgRIIa H; FcγRIIa type H; not shown: His tag attached to the C terminus
# T2 sequence (looked up): T1 sequence (looked up) with R134H
# T3: FcγRIIb extracellular domain with C-terminal His tag (human, UniProt P31994 43-217)
# T3 construct: extracellular domain; also called FcgRIIb; 2b; not shown: His tag at the C terminus
# T3 sequence (looked up): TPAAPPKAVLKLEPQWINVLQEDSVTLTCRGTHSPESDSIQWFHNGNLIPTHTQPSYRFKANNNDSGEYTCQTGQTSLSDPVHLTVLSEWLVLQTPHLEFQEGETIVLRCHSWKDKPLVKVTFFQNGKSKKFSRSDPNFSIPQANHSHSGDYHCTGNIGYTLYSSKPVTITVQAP
# T4: FcγRIIb (human, UniProt P31994 43-217)
# T4 construct: extracellular domain; also called FcgRIIb; 2b; not shown: His tag attached to the C terminus
# T4 sequence (looked up): T3 sequence (looked up)
# B1: GpH7-A5/GpH7-B3 variant L234_01G/GpL16-k0 (antibody, human IgG1, kappa)
# heavy 1: not shown
# heavy 2: not shown
# light: DIVMTQSPLSLPVTPGEPASISCQASESLVHSNRNTYLHWYLQKPGQSPQLLIYKVSNRFSGVPDRFSGSGSGTDFTLKISRVEAEDVGVYYCSQNTHVPPTFGQGTKVEIERTVAAPSVFIFPPSDEQLKSGTASVVCLLNNFYPREAKVQWKVDNALQSGNSQESVTEQDSKDSTYSLSSTLTLSKADYEKHKVYACEVTHQGLSSPVTKSFNRGEC
# notes: He Ab: alteration in the GpH7-B3 H chain only; also called He Ab
# B2: GpH7-A5/GpH7-B3 variant P238_01G/GpL16-k0 (antibody, human IgG1, kappa)
# heavy 1: not shown
# heavy 2: not shown
# light: B1 light
# notes: as for B1
# B3: GpH7-A5/GpH7-B3 variant L234_02A/GpL16-k0 (antibody, human IgG1, kappa)
# heavy 1: not shown
# heavy 2: not shown
# light: B1 light
# notes: as for B1
# B4: GpH7-A5/GpH7-B3 variant L235_13S/GpL16-k0 (antibody, human IgG1, kappa)
# heavy 1: not shown
# heavy 2: not shown
# light: B1 light
# notes: as for B1
# B5: GpH7-A5/GpH7-B3 variant L235_19Q/GpL16-k0 (antibody, human IgG1, kappa)
# heavy 1: not shown
# heavy 2: not shown
# light: B1 light
# notes: as for B1
# B6: GpH7-A5/GpH7-B3 variant L234_16H/GpL16-k0 (antibody, human IgG1, kappa)
# heavy 1: not shown
# heavy 2: not shown
# light: B1 light
# notes: as for B1
# B7: GpH7-A5/GpH7-B3 variant L235_01G/GpL16-k0 (antibody, human IgG1, kappa)
# heavy 1: not shown
# heavy 2: not shown
# light: B1 light
# notes: as for B1
# B8: GpH7-A5/GpH7-B3 variant L234_12R/GpL16-k0 (antibody, human IgG1, kappa)
# heavy 1: not shown
# heavy 2: not shown
# light: B1 light
# notes: as for B1
# B9: GpH7-A5/GpH7-B3 variant L235_16H/GpL16-k0 (antibody, human IgG1, kappa)
# heavy 1: not shown
# heavy 2: not shown
# light: B1 light
# notes: as for B1
# B10: GpH7-A5/GpH7-B3 variant L235_11K/GpL16-k0 (antibody, human IgG1, kappa)
# heavy 1: not shown
# heavy 2: not shown
# light: B1 light
# notes: as for B1
# B11: GpH7-A5/GpH7-B3 variant L235_18N/GpL16-k0 (antibody, human IgG1, kappa)
# heavy 1: not shown
# heavy 2: not shown
# light: B1 light
# notes: as for B1
# B12: GpH7-A5/GpH7-B3 variant L234_19Q/GpL16-k0 (antibody, human IgG1, kappa)
# heavy 1: not shown
# heavy 2: not shown
# light: B1 light
# notes: as for B1
# B13: GpH7-A5/GpH7-B3 variant L234_14T/GpL16-k0 (antibody, human IgG1, kappa)
# heavy 1: not shown
# heavy 2: not shown
# light: B1 light
# notes: as for B1
# B14: GpH7-A5/GpH7-B3 variant L234_11K/GpL16-k0 (antibody, human IgG1, kappa)
# heavy 1: not shown
# heavy 2: not shown
# light: B1 light
# notes: as for B1
# B15: GpH7-A5/GpH7-B3 variant L234_05P/GpL16-k0 (antibody, human IgG1, kappa)
# heavy 1: not shown
# heavy 2: not shown
# light: B1 light
# notes: as for B1
# B16: GpH7-A5/GpH7-B3 variant L235_14T/GpL16-k0 (antibody, human IgG1, kappa)
# heavy 1: not shown
# heavy 2: not shown
# light: B1 light
# notes: as for B1
# B17: GpH7-A5/GpH7-B3 variant P238_02A/GpL16-k0 (antibody, human IgG1, kappa)
# heavy 1: not shown
# heavy 2: not shown
# light: B1 light
# notes: as for B1
# B18: GpH7-A5/GpH7-B3 variant G236_02A/GpL16-k0 (antibody, human IgG1, kappa)
# heavy 1: not shown
# heavy 2: not shown
# light: B1 light
# notes: Heterodimerized IgG1, mutation in the GpH7-B3 chain only; also called He Ab
# B19: GpH7-A5/GpH7-B3 variant L235_12R/GpL16-k0 (antibody, human IgG1, kappa)
# heavy 1: not shown
# heavy 2: not shown
# light: B1 light
# notes: as for B18
# B20: GpH7-A5/GpH7-B3 variant G236_12R/GpL16-k0 (antibody, human IgG1, kappa)
# heavy 1: not shown
# heavy 2: not shown
# light: B1 light
# notes: as for B18
# B21: GpH7-A5/GpH7-B3 variant G236_08L/GpL16-k0 (antibody, human IgG1, kappa)
# heavy 1: not shown
# heavy 2: not shown
# light: B1 light
# notes: as for B18
# B22: GpH7-A5/GpH7-B3 variant D265_02A/GpL16-k0 (antibody, human IgG1, kappa)
# heavy 1: not shown
# heavy 2: not shown
# light: B1 light
# notes: as for B18
# B23: GpH7-A5/GpH7-B3 variant G236_04F/GpL16-k0 (antibody, human IgG1, kappa)
# heavy 1: not shown
# heavy 2: not shown
# light: B1 light
# notes: as for B18
# B24: GpH7-A5/GpH7-B3 variant G236_07I/GpL16-k0 (antibody, human IgG1, kappa)
# heavy 1: not shown
# heavy 2: not shown
# light: B1 light
# notes: as for B18
# B25: GpH7-A5/GpH7-B3 variant G236_06M/GpL16-k0 (antibody, human IgG1, kappa)
# heavy 1: not shown
# heavy 2: not shown
# light: B1 light
# notes: as for B18
# B26: GpH7-A5/GpH7-B3 variant D265_03V/GpL16-k0 (antibody, human IgG1, kappa)
# heavy 1: not shown
# heavy 2: not shown
# light: B1 light
# notes: as for B18
# B27: GpH7-A5/GpH7-B3 variant G236_03V/GpL16-k0 (antibody, human IgG1, kappa)
# heavy 1: not shown
# heavy 2: not shown
# light: B1 light
# notes: as for B18
# B28: GpH7-A5/GpH7-B3 variant G236_14T/GpL16-k0 (antibody, human IgG1, kappa)
# heavy 1: not shown
# heavy 2: not shown
# light: B1 light
# notes: as for B18
# B29: GpH7-A5/GpH7-B3 variant G236_05P/GpL16-k0 (antibody, human IgG1, kappa)
# heavy 1: not shown
# heavy 2: not shown
# light: B1 light
# notes: as for B18
# B30: GpH7-A5/GpH7-B3 variant G236_15Y/GpL16-k0 (antibody, human IgG1, kappa)
# heavy 1: not shown
# heavy 2: not shown
# light: B1 light
# notes: as for B18
# B31: GpH7-A5/GpH7-B3 variant G236_13S/GpL16-k0 (antibody, human IgG1, kappa)
# heavy 1: not shown
# heavy 2: not shown
# light: B1 light
# notes: as for B18
# B32: GpH7-A5/GpH7-B3 variant G236_16H/GpL16-k0 (antibody, human IgG1, kappa)
# heavy 1: not shown
# heavy 2: not shown
# light: B1 light
# notes: as for B18
# Biological target: T1, FcγRIIa R (FcγRIIa, allotype R: Arg at …)
# Experiment: ratio He/Con_2aR : He/Con_2b (FcgRIIa R over FcgRIIb), SPR Biacore
# Description: The heterodimerized antibodies He Abs in which one of the H chains was introduced with an alteration were assayed for their binding activities to each activating FcγR and inhibitory FcγR according to the method described in Example 4. […] The activating FcγRs in FIGS. 26, 27, 28, and 29 are FcγRIa, FcγRIIa (R), FcγRIIa (H), and FcγRIIIa, respectively.
# Analysis of interaction between objective antibody and the FcγR was carried out using Biacore T100 (GE Healthcare). HBS-EP+ (GE Healthcare) was used as the running buffer, and the measurement temperature was set to 25° C. Chips produced by immobilizing the antigen peptide by the amine coupling method to a Series S Sencor Chip CM5 (GE Healthcare), or alternatively, chips produced by allowing preliminarily biotinylated antigen peptides to interact with and immobilize onto a Series S Sensor Chip SA (certified) (GE Healthcare) were used. Antibodies of interest were captured onto an antigen peptide-immobilized chip, and allowed to interact to each FcγR diluted with running buffer. To regenerate and repeatedly use the chip, the antibodies captured on the chip were washed off by reacting 10 mM glycine-HCl, pH 1.5.
row,He_2aR/2b (IIaR/IIb),Binder
1,1.23,B1
2,1.34,B2
3,1.23,B3
4,1.36,B4
5,1.32,B5
6,1.21,B6
7,1.37,B7
8,1.58,B8
9,1.23,B9
10,1.72,B10
11,1.21,B11
12,1.24,B12
13,1.24,B13
14,1.66,B14
15,1.23,B15
16,1.3,B16
17,1.31,B17

# Biological target: T2, FcγRIIa H
# Experiment: ratio of He/Con_2aH to He/Con_2b (relative SPR binding to FcγRIIa H over FcγRIIb)
row,He_2aH/2b (IIaH/IIb),Binder
1,1.44,B18
2,3.16,B19
3,5.04,B20
4,2.83,B21
5,1.58,B22
6,3,B23
7,3.72,B24
8,1.88,B25
9,1.42,B26
10,3.39,B27
11,1.79,B28
12,3.34,B29
13,3.45,B30
14,1.39,B31
15,3.51,B32

# Biological target: T1, FcγRIIa R (FcγRIIa, allotype R: Arg at …)
# Experiment: SPR Biacore, antibody captured, FcgR analyte; vs HeCon Ab GpH7-A5/GpH7-B3/GpL16-k0 = 100
row,He/Con_2aR [control = 100],Binder
1,62.3,B1
2,75,B2
3,79.6,B3
4,65.3,B4
5,56.2,B5
6,71.8,B6
7,48.5,B7
8,29.9,B8
9,94.8,B9
10,10.8,B10
11,66.5,B11
12,75.1,B12
13,77.5,B13
14,26.8,B14
15,89.6,B15
16,60.7,B16
17,75.1,B17

# Biological target: T3, FcγRIIb extracellular domain with …
# Experiment: as above
row,He/Con_2b [control = 100],Binder
1,50.7,B1
2,56,B2
3,64.9,B3
4,48.2,B4
5,42.6,B5
6,59.4,B6
7,35.4,B7
8,18.9,B8
9,76.9,B9
10,6.3,B10
11,54.9,B11
12,60.3,B12
13,62.5,B13
14,16.2,B14
15,72.9,B15
16,46.8,B16
17,57.4,B17

# Biological target: T2, FcγRIIa H
# Experiment: SPR (Biacore), antibody captured, FcγR as analyte; binding relative to GpH7-A5/GpH7-B3/GpL16-k0 = 100
row,He/Con_2aH [control = 100],Binder
1,139,B18
2,30.3,B19
3,34.2,B20
4,75.8,B21
5,31.3,B22
6,118,B23
7,115,B24
8,85.7,B25
9,4.6,B26
10,119,B27
11,103,B28
12,63.5,B29
13,136,B30
14,135,B31
15,98.2,B32

# Biological target: T4, FcγRIIb
# Experiment: as above
row,He/Con_2b [control = 100],Binder
1,96.5,B18
2,6.8,B20
3,26.8,B21
4,19.9,B22
5,39.3,B23
6,31,B24
7,45.5,B25
8,3.2,B26
9,35.3,B27
10,57.8,B28
11,19,B29
12,39.5,B30
13,96.7,B31
14,27.9,B32
